Measured values: paper PMC2628593 (Molecular cell, 2008)

Biological target: the molecule itself
Test: SEC + other: dynamic light scattering

B1: Skap55 (Src-kinase-associated phosphoprotein of 55 kDa) (natural protein, UniProt Q86WV1 1-359, looked up)
chain: MQAAALPEEIRWLLEDAEEFLAEGLRNENLSAVARDHRDHILRGFQQIKARYYWDFQPQGGDIGQDSSDDNHSGTLGLSLTSDAPFLSDYQDEGMEDIVKGAQELDNVIKQGYLEKKSKDHSFFGSEWQKRWCVVSRGLFYYYANEKSKQPKGTFLIKGYGVRMAPHLRRDSKKESCFELTSQDRRSYEFTATSPAEARDWVDQISFLLKDLSSLTIPYEEDEEEEEKEETYDDIDGFDSPSCGSQCRPTILPGSVGIKEPTEEKEEEDIYEVLPDEEHDLEEDESGTRRKGVDYASYYQGLWDCHGDQPDELSFQRGDLIRILSKEYNMYGWWVGELNSLVGIVPKEYLTTAFEVEER
  stoichiometry N: 2
